We go through three molecules from US20070184522A1, “Cell death modulation via antagonists of Fasl and Fas activation” (University of Pittsburgh of the Commonwealth System of …, priority 2004, published 2007).

“Also recorded” adds a separate entry of the source.

In one test the target is T1, Fas-Fc (Mus musculus, UniProt P25446).
T1 construct: purchased R&D
T1 sequence (P25446 22-169 limits assumed): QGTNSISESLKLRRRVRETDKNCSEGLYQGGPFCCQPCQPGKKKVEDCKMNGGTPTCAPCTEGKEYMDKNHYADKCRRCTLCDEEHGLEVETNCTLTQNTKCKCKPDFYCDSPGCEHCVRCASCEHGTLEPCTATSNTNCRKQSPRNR
Briefly: ELISA of Fas-Fc binding to coated synthetic polypeptides. Particulars: peptides coated at 1 μg/ml, increasing Fas-Fc, OD 450 nm. From the text:
The Met alpha but not beta chain binds to Fas (FIG. 1a). Various regions of the mouse Met cDNA corresponding to the alpha chain or the extra-cellular portion of the Met beta chain were cloned into expression vectors (pCRT7 TOPO/AlphaMet or pCRT7 TOPO/beta chain) and subjected to in vitro transcription/translation by a rabbit reticolucyte lysate translation system. Empty vector was included in each experiment as a control. The expressed proteins were labeled with ^35S-Methionine. Pull down assays were performed using Fas-Fc, a chimeric molecule which lacks the interacellular cytoplasmic domain and protein-A agarose as described in Wang et al., 2002. FIG. 1b is a schematic presentation of the Met alpha chain and its mutant version used to map the region interacting with Fas. The C-terminus of each construct contains a hexa-Histidine tag for ease of detection. Start cordon ATG was added to the N-terminally truncated constructs. The YLGA (SEQ ID NO:1) motif mutation was prepared by PCR, in which YLGA (SEQ ID NO:1) was replaced by DHER (SEQ ID NO:24). […] In vitro translated ^35S-methionine labeled truncated/mutated AlphaMet proteins were pulled down with 2 μg of Fas-Fc or the same amount of IgG. Lane 1: 10% of AlphaMet input; Lane 2: AlphaMet with IgG control; Lanes 3 to 8: pull down of various truncated AlphaMet proteins; N-terminal 1-106 residues; C-terminal truncated, residues 1-210; alpha chain, residues 1-306; alpha chain with transmembrane domain, 1-338; N-terminally truncated alpha chain, residues 100-306; and N-terminally truncated with addition of the transmembrane domain 100-338, respectively. FIG. 1d depicts the amino acid sequence alignment of alpha chain with FasL, determined using the CLUSTALW, SIM+LALNVIEW, and ALIGN at ExPASy Proteomic Tools (available on the internet at us.expresly.org/tools). The numbers indicate the amino acid residues of the indicated protein. […] Recombinant His-tagged AlphaMet or its mutant version were expressed in E. coli, purified with chromatography, and subjected to Fas-Fc (lanes labeled Fas) or control IgG pull down experiments, and detected by Western blot using anti-His antibody that recognizes C-terminal His. This antibody also recognizes the Fas-Fc which is also tagged at the C-terminus by His. […] Purified recombinant AlphaMet protein (approximately 10 μg) was mixed with Hepa 1-6 cells or Jurkat cell lysates and subjected to immunoprecicitation using anti-Fas antibody or control IgG followed by Western blot using anti His-tag antibody as a probe. […] Peptides (1 μg/ml) were coated into the 96-well microtiter plates in triplicate and after blocking with 1% BSA, increasing amounts of Fas-Fc were added as indicated. The control peptide was a scrambled 13 mer. After washing the wells, anti-human […]-HRP conjugates (1:20,000) were added to detect the bound Fas-Fc using TMD dye and the OD value was determined at a wavelength of 450 nm. One-way ANOVA was carried out for determination of statistical significance.
ELISA. Synthesized polypeptides (Genemed Synthesis, Inc. South San Francisco, Calif.) were dissolved in water and diluted in the coating buffer (0.05M of Sodium Carbonate, 0.02% of Sodium Azide, pH 9.6) to a final concentration of 1 ug/ml. One hundred microliter aliquots were added to coat each well of a 96-well microtitre plate. The coated plates were then washed with PBS-Tween (0.5%) three times. The plates were blotted and dried by tapping upside down on tissue paper. They were blocked using 200 μl of 1% of BSA in PBS solution followed by a 2 hour incubation. Plates were washed another three times, Fas-Fc was added, and the plates were incubated for another 2 hours. The plates were washed three times and anti-human IgM Fc HRP conjugates were included at a final concentration of 1:20,000, and incubated for 1 hour. Plates were washed three times again and ready-to-use TMD was added and incubated for 30 minutes. The color reaction was stopped by 2M of Sulfuric Acid. […]
A general note: An ELISA detects its analyte on a solid surface through an enzyme-linked reagent.

Test [1] deals with Fas capping in Hepa 1-6 cells. Kind of test: Fas capping of fluorescent protein tagged Fas in Hepa 1-6 cells. The class given is cell-based. Particulars: for FasL-induced Fas capping: Hepa 1-6, FasL 1 μg/ml, AlphaMet 5 μg/ml or YLGA 12 mer 1 μg/ml, 30 minutes; for Jo2-induced Fas capping/clustering: Hepa 1-6, Jo2 100 ng/ml. As for the experimental part:
FIG. 3a presents data collected from Jurkat cells (1×10^6) treated with 2 μg/ml of Fas Ligand with or without AlphaMet for 30 minutes on ice. Cells were washed with PBS twice and then incubated with 2 mM of DTSSP in PBS for 30 minutes. The crosslinking process was stopped by 20 mM of Tris (pH 7.5) for another 30 minutes. Cells were spun down and washed with PBS twice and lyzed in RIPA buffer. Cell lysates were subjected to SDS-PAGE under non-reducing or reducing conditions (FIG. 3b) and Western blot analysis using the mouse monoclonal antibody against human Fas. FIG. 3c depicts the quantification of the data in FIG. 3a by densitometry. The data are the mean and SE from three different independent crosslinking and Western blot experiments. […] Frame A: Acceptor CFP-Fas image; Frame B: Acceptor pre-bleach CFP-Fas image; Frame C: Acceptor post-bleach image. Frame D: Donor YFP-Fas image; Frame E: Donor pre-bleach image; Frame F: […]. The CFP-Fas strength in the selected region obtained a gain of 19.3% efficiency in the presence of FasL for 15 minutes. No FRET was observed without FasL. […] FIG. 3e depicts the results of experiments in which CFP-tagged Fas or CFP control vector were transiently expressed in Hepa 1-6 Cells (3×10^5). Cells were treated with 1 μg/ml of Fas ligand or 100 ng/ml of Jo2 with or without 5 μg/ml of AlphaMet or 1 μg/ml of YLGA 12 mer for 30 minutes on ice. Cells were fixed and analyzed by fluorescence microscopy. Frame A: AlphaMet treatment only, no FasL; Frame B: Fas ligand treatment only; Frame C: Fas ligand and AlphaMet treatment; Frame D: Fas ligand and 12 mer YLGA; Frame E: Jo2 treatment only and Frame F: Jo2 and AlphaMet treatment.
Fluorescence protein tagged Fas molecules and Hepa 1-6 cells were used for these experiments. These cells were transiently co-transfected with CFP and YFP chimeric Fas expression vectors using the lipofectamine 2000 method (Invitrogen). After 24 hours of transfection, about 50% of the cells were fluorescing. The cells were treated by Fas-ligand in the presence or absence of AlphaMet for 30 minutes. Treated cells were then fixed with cold methanol and subjected to FRET analysis. Cells were considered positive if FRET efficiency was over 10%. FRET phenomenon was observed only in cells that were treated with Fas-ligand. […] In these experiments the percent of Fas capping was also determined.

As for HHIYLGATNYIY [12 mer], the “Fas binding by ELISA” value with Fas-Fc was “bound Fas strongly”. Moreover, in test [1], the “FasL-induced Fas capping” value is listed as “inhibited to the background level” and the “Jo2-induced Fas capping/clustering” value is “reduced Jo2-induced Fas capping”.

As to YLGA [YLGA 4 mer], the “Fas binding by ELISA” value with Fas-Fc was “lower compared to the YLGA 12 mer”.

B1: alpha subunit of Met (AlphaMet), amino acid residues 1 to 306, His-tagged (receptor, mouse)
chain: MKAPTVLAPGILVLLLSLVQRSHGECKEALVKSEMNVNMKYQLPNFTAETPIQNVVLHGHHIYLGATNYIYVLNDKDLQKVSEFKTGPVLEHPDCLPCRDCSSKANSSGGVWKDNINMALLVDTYYDDQLISCGSVNRGTCQRHVLPPDNSADIQSEVHCMFSPEEESGQCPDCVVSALGAKVLLSEKDRFINFFVGNTINSSYPPGYSLHSISVRRLKETQDGFKFLTDQSYIDVLPEFLDSYPIKYIHAFESNHFIYFLTVQKETLDAQTFHTRIIRFCSVDSGLHSYMEMPLECILTEKRRKRHHHHHH
As for B1, in test [1], the “FasL-induced Fas capping” value was “inhibited to the background level” and the “Jo2-induced Fas capping/clustering” value is “also inhibited; also recorded: reduced Jo2-induced Fas capping”.
